The text below walks through data of publication PMC5302901.

This experiment addresses Grb2 (UniProt Q07883). Briefly: IP of Grb2, blot for CD22. The conditions noted are these: reference: CD22-WT; sites Y773,Y783,Y828,Y843,Y863.

CD22 (from UniProt P35329) F1/2/4/5/6: the “binding against the reference” value is “lost”.
